The values below are quoted from earlier work in paper PMC11574045, “A cofactor-induced repressive type of transcription factor condensation can be induced by synthetic peptides to suppress tumorigenesis” (The EMBO Journal, 2024).

Broadly, the Kd is the free concentration of one partner at which half of the binding sites on the other are occupied at equilibrium, for simple one-to-one binding.

The series has as its target VGLL4 (Homo sapiens) (UniProt Q14135). The following applies: cited from earlier work.

TEAD4, sequence (Q15561 whole entry): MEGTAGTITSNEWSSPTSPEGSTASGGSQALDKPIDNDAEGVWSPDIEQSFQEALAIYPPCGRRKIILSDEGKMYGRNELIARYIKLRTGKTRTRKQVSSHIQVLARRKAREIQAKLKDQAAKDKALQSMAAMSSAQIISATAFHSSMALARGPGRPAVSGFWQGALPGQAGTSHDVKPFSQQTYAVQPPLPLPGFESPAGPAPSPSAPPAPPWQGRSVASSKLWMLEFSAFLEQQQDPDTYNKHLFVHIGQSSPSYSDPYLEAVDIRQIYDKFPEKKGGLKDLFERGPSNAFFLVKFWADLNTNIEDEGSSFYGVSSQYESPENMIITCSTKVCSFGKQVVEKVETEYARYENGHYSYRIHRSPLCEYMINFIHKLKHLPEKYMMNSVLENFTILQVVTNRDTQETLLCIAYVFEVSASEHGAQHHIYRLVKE
VGLL4 (Homo sapiens), sequence (Q14135 whole entry): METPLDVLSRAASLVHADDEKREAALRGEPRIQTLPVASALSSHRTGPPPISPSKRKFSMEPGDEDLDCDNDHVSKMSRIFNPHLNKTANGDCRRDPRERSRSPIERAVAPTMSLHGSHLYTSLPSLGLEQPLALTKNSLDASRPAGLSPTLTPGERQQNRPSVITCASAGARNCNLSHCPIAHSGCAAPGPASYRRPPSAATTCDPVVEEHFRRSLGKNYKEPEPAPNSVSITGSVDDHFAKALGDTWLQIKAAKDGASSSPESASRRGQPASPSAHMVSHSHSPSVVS

In the case of TEAD4 (from UniProt Q15561), the Kd was 6.8 nM.
